Data reported in paper doi:10.1101/2023.03.20.533423 (bioRxiv, 2023).

Target: T1, M. tb ParB with C-terminal 6xHis-tag (M. tuberculosis, UniProt P9WIJ9 1-344)
T1 sequence: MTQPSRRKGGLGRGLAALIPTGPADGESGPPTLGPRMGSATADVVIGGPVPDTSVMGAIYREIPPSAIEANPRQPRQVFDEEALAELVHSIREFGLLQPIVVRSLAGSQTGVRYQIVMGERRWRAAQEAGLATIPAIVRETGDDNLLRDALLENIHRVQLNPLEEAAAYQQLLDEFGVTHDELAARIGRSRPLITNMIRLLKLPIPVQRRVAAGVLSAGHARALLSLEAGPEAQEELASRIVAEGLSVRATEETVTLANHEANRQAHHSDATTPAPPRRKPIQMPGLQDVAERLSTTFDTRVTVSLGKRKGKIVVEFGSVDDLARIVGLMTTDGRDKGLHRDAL
Assay: pull-down

B1: GST-Rv1708 (natural protein)
chain: MPAGLPGQASVAVRLSCDVPPDARHHEPRPGMTDHPDTGNGIGLTGRPPRAIPDPAPRSSHGPAKVIAMCNQKGGVGKTTSTINLGAALGEYGRRVLLVDMDPQGALSAGLGVPHYELDKTIHNVLVEPRVSIDDVLIHSRVKNMDLVPSNIDLSAAEIQLVNEVGREQTLARALYPVLDRYDYVLIDCQPSLGLLTVNGLACTDGVIIPTECEFFSLRGLALLTDTVDKVRDRLNPKLDISGILITRYDPRTVNSREVMARVVERFGDLVFDTVITRTVRFPETSVAGEPITTWAPKSAGALAYRALARELIDRFGM
Question: Does B1 bind?
Answer: Result: binds
